Data reported in ChEMBL document CHEMBL1649237, “IND-6, a highly divergent IND-type metallo-beta-lactamase from Chryseobacterium indologenes strain 597 isolated in Burkina Faso” (2009).

How the values were obtained:
[1] = substrate: C[C@@H](O)[C@H]1C(=O)N2C(C(=O)O)=C(S[C@@H]3CN[C@H](C(=O)N(C)C)C3)[C@H](C)[C@H]12; assay: (§1) Ratio of Kcat to Km for Chryseobacterium indologenes 597 metallo-beta-lactamase […] expressed in Escherichia coli DH5alpha by Michaelis-Menten equation
[2] = substrate: CC1(C)S[C@@H]2[C@H](NC(=O)C(C(=O)O)c3ccccc3)C(=O)N2[C@H]1C(=O)O; assay: as §1
[3] = substrate: C[C@@H](O)[C@H]1C(=O)N2C(C(=O)O)=C(SCCNC=N)C[C@H]12; assay: as §1
[4] = substrate: CO/N=C(\C(=O)N[C@@H]1C(=O)N2C(C(=O)O)=C(COC(C)=O)CS[C@H]12)c1csc(N)n1; assay: as §1
[5] = substrate: CC1(C)S[C@@H]2[C@H](NC(=O)Cc3ccccc3)C(=O)N2[C@H]1C(=O)O; assay: as §1
[6] = substrate: CO/N=C(\C(=O)N[C@@H]1C(=O)N2C(C(=O)[O-])=C(C[N+]3(C)CCCC3)CS[C@H]12)c1csc(N)n1; assay: (§2) Ratio of Kcat to Km for Chryseobacterium meningosepticum CCUG 4310 beta-lactamase BlaB1 expressed in Escherichia coli DH5alpha by Michaelis-Menten equation; conditions: Elizabethkingia meningoseptica
[7] = substrate: C[C@@H](O)[C@H]1C(=O)N2C(C(=O)O)=C(S[C@@H]3CN[C@H](C(=O)N(C)C)C3)[C@H](C)[C@H]12; assay: as §2; conditions: Elizabethkingia meningoseptica
[8] = substrate: CC1(C)S[C@@H]2[C@H](NC(=O)C(C(=O)O)c3ccccc3)C(=O)N2[C@H]1C(=O)O; assay: as §2; conditions: Elizabethkingia meningoseptica
[9] = substrate: C[C@@H](O)[C@H]1C(=O)N2C(C(=O)O)=C(SCCNC=N)C[C@H]12; assay: as §2; conditions: Elizabethkingia meningoseptica
[10] = substrate: O=C(Cc1cccs1)N[C@@H]1C(=O)N2C(C(=O)[O-])=C(C[n+]3ccccc3)CS[C@H]12; assay: as §2; conditions: Elizabethkingia meningoseptica
[11] = substrate: O=C(Cc1cccs1)N[C@@H]1C(=O)N2C(C(=O)O)=C(/C=C/c3ccc([N+](=O)[O-])cc3[N+](=O)[O-])CS[C@H]12; assay: as §2; conditions: Elizabethkingia meningoseptica
[12] = substrate: CC(=O)OCC1=C(C(=O)O)N2C(=O)[C@@H](NC(=O)Cc3cccs3)[C@H]2SC1; assay: as §2; conditions: Elizabethkingia meningoseptica
[13] = substrate: CO/N=C(\C(=O)N[C@@H]1C(=O)N2C(C(=O)O)=C(COC(N)=O)CS[C@H]12)c1ccco1; assay: as §2; conditions: Elizabethkingia meningoseptica
[14] = substrate: CO/N=C(\C(=O)N[C@@H]1C(=O)N2C(C(=O)O)=C(COC(C)=O)CS[C@H]12)c1csc(N)n1; assay: as §2; conditions: Elizabethkingia meningoseptica
[15] = substrate: CC(C)(O/N=C(\C(=O)N[C@@H]1C(=O)N2C(C(=O)[O-])=C(C[n+]3ccccc3)CS[C@H]12)c1csc(N)n1)C(=O)O; assay: as §2; conditions: Elizabethkingia meningoseptica
[16] = substrate: CC1(C)S[C@@H]2[C@H](NC(=O)Cc3ccccc3)C(=O)N2[C@H]1C(=O)O; assay: as §2; conditions: Elizabethkingia meningoseptica
[17] = substrate: CO/N=C(\C(=O)N[C@@H]1C(=O)N2C(C(=O)[O-])=C(C[N+]3(C)CCCC3)CS[C@H]12)c1csc(N)n1; assay: (§3) Ratio of Kcat to Km for Chryseobacterium indologenes 597 metallo-beta-lactamase IND-2 expressed in Escherichia coli DH5alpha by Michaelis-Menten equation
[18] = substrate: C[C@@H](O)[C@H]1C(=O)N2C(C(=O)O)=C(S[C@@H]3CN[C@H](C(=O)N(C)C)C3)[C@H](C)[C@H]12; assay: as §3
[19] = substrate: C[C@@H](O)[C@H]1C(=O)N2C(C(=O)O)=C(SCCNC=N)C[C@H]12; assay: as §3
[20] = substrate: CC(=O)OCC1=C(C(=O)O)N2C(=O)[C@@H](NC(=O)Cc3cccs3)[C@H]2SC1; assay: as §3
[21] = substrate: CO/N=C(\C(=O)N[C@@H]1C(=O)N2C(C(=O)O)=C(COC(C)=O)CS[C@H]12)c1csc(N)n1; assay: as §3
[22] = substrate: CC(C)(O/N=C(\C(=O)N[C@@H]1C(=O)N2C(C(=O)[O-])=C(C[n+]3ccccc3)CS[C@H]12)c1csc(N)n1)C(=O)O; assay: as §3
[23] = substrate: CC1(C)S[C@@H]2[C@H](NC(=O)Cc3ccccc3)C(=O)N2[C@H]1C(=O)O; assay: as §3
[24] = substrate: CO/N=C(\C(=O)N[C@@H]1C(=O)N2C(C(=O)[O-])=C(C[N+]3(C)CCCC3)CS[C@H]12)c1csc(N)n1; assay: (§4) Ratio of Kcat to Km for Chryseobacterium indologenes 597 metallo-beta-lactamase IND-6 expressed in Escherichia coli DH5alpha by Michaelis-Menten equation
[25] = substrate: C[C@@H](O)[C@H]1C(=O)N2C(C(=O)O)=C(S[C@@H]3CN[C@H](C(=O)N(C)C)C3)[C@H](C)[C@H]12; assay: as §4
[26] = substrate: CC1(C)S[C@@H]2[C@H](NC(=O)C(C(=O)O)c3ccccc3)C(=O)N2[C@H]1C(=O)O; assay: as §4
[27] = substrate: C[C@@H](O)[C@H]1C(=O)N2C(C(=O)O)=C(SCCNC=N)C[C@H]12; assay: as §4
[28] = substrate: O=C(Cc1cccs1)N[C@@H]1C(=O)N2C(C(=O)[O-])=C(C[n+]3ccccc3)CS[C@H]12; assay: as §4
[29] = substrate: O=C(Cc1cccs1)N[C@@H]1C(=O)N2C(C(=O)O)=C(/C=C/c3ccc([N+](=O)[O-])cc3[N+](=O)[O-])CS[C@H]12; assay: as §4
[30] = substrate: CC(=O)OCC1=C(C(=O)O)N2C(=O)[C@@H](NC(=O)Cc3cccs3)[C@H]2SC1; assay: as §4
[31] = substrate: CO/N=C(\C(=O)N[C@@H]1C(=O)N2C(C(=O)O)=C(COC(N)=O)CS[C@H]12)c1ccco1; assay: as §4
[32] = substrate: CO/N=C(\C(=O)N[C@@H]1C(=O)N2C(C(=O)O)=C(COC(C)=O)CS[C@H]12)c1csc(N)n1; assay: as §4
[33] = substrate: CC1=C(C(=O)O)N2C(=O)[C@@H](NC(=O)[C@H](N)c3ccccc3)[C@H]2SC1; assay: as §4
[34] = substrate: CC1(C)S[C@@H]2[C@H](NC(=O)[C@H](N)c3ccc(O)cc3)C(=O)N2[C@H]1C(=O)O; assay: as §4
[35] = substrate: CC(C)(O/N=C(\C(=O)N[C@@H]1C(=O)N2C(C(=O)[O-])=C(C[n+]3ccccc3)CS[C@H]12)c1csc(N)n1)C(=O)O; assay: as §4
[36] = substrate: CC1(C)S[C@@H]2[C@H](NC(=O)Cc3ccccc3)C(=O)N2[C@H]1C(=O)O; assay: as §4
[37] = substrate: CO/N=C(\C(=O)N[C@@H]1C(=O)N2C(C(=O)[O-])=C(C[N+]3(C)CCCC3)CS[C@H]12)c1csc(N)n1; assay: (§5) Activity at Chryseobacterium indologenes 597 metallo-beta-lactamase IND-6 expressed in Escherichia coli DH5alpha by Michaelis-Menten equation
[38] = substrate: C[C@@H](O)[C@H]1C(=O)N2C(C(=O)O)=C(S[C@@H]3CN[C@H](C(=O)N(C)C)C3)[C@H](C)[C@H]12; assay: as §5
[39] = substrate: CC1(C)S[C@@H]2[C@H](NC(=O)C(C(=O)O)c3ccccc3)C(=O)N2[C@H]1C(=O)O; assay: as §5
[40] = substrate: C[C@@H](O)[C@H]1C(=O)N2C(C(=O)O)=C(SCCNC=N)C[C@H]12; assay: as §5
[41] = substrate: O=C(Cc1cccs1)N[C@@H]1C(=O)N2C(C(=O)[O-])=C(C[n+]3ccccc3)CS[C@H]12; assay: as §5
[42] = substrate: O=C(Cc1cccs1)N[C@@H]1C(=O)N2C(C(=O)O)=C(/C=C/c3ccc([N+](=O)[O-])cc3[N+](=O)[O-])CS[C@H]12; assay: as §5
[43] = substrate: CC(=O)OCC1=C(C(=O)O)N2C(=O)[C@@H](NC(=O)Cc3cccs3)[C@H]2SC1; assay: as §5
[44] = substrate: CO/N=C(\C(=O)N[C@@H]1C(=O)N2C(C(=O)O)=C(COC(N)=O)CS[C@H]12)c1ccco1; assay: as §5
[45] = substrate: CO/N=C(\C(=O)N[C@@H]1C(=O)N2C(C(=O)O)=C(COC(C)=O)CS[C@H]12)c1csc(N)n1; assay: as §5
[46] = substrate: CC1=C(C(=O)O)N2C(=O)[C@@H](NC(=O)[C@H](N)c3ccccc3)[C@H]2SC1; assay: as §5
[47] = substrate: CC1(C)S[C@@H]2[C@H](NC(=O)[C@H](N)c3ccc(O)cc3)C(=O)N2[C@H]1C(=O)O; assay: as §5
[48] = substrate: CC(C)(O/N=C(\C(=O)N[C@@H]1C(=O)N2C(C(=O)[O-])=C(C[n+]3ccccc3)CS[C@H]12)c1csc(N)n1)C(=O)O; assay: as §5
[49] = substrate: CC1(C)S[C@@H]2[C@H](NC(=O)Cc3ccccc3)C(=O)N2[C@H]1C(=O)O; assay: as §5

B1: IND-like metallo-beta-lactamase (Chryseobacterium indologenes), Q6JE29 (protein)
chain: MKKRIQFFMVSMMLAPMFNAQVKDFVIEPPIKNNLHIYKTFGVFGGKEYSANSVYLVTKKGVVLFDVPWEKAQYQSLMDTIKKRHNLPVIAVFATHSHDDRAGDLSFFNNKGIKTYATSKTNEFLKKDGKATSTEIIKTGKPYRIGGEEFTVDFLGEGHTADNVVVWFPKYNVLDGGCLVKSNSATDLGYIKEANVEQWPITIDKLKAKYSKATLIIPGHDDWKGGGHVEHTLELLNKK
kcat/Km [1]: 1.5 ×10⁴ /M/s
kcat/Km [2]: 5.3 ×10⁴ /M/s
kcat/Km [3]: 2.4 ×10⁴ /M/s
kcat/Km [4]: 3.1 ×10⁴ /M/s
kcat/Km [5]: 8.4 ×10⁵ /M/s

B2: Metallo-beta-lactamase type 2 (Flavobacterium meningosepticum), O08498 (protein)
chain: MLKKIKISLILALGLTSLQAFGQENPDVKIEKLKDNLYVYTTYNTFNGTKYAANAVYLVTDKGVVVIDCPWGEDKFKSFTDEIYKKHGKKVIMNIATHSHDDRAGGLEYFGKIGAKTYSTKMTDSILAKENKPRAQYTFDNNKSFKVGKSEFQVYYPGKGHTADNVVVWFPKEKVLVGGCIIKSADSKDLGYIGEAYVNDWTQSVHNIQQKFSGAQYVVAGHDDWKDQRSIQHTLDLINEYQQKQKASN
kcat/Km [6]: 2 ×10² /M/s
kcat/Km [7]: 7.6 ×10⁵ /M/s
kcat/Km [8]: 6.1 ×10⁶ /M/s
kcat/Km [9]: 2 ×10⁶ /M/s
kcat/Km [10]: 1.4 ×10⁵ /M/s
kcat/Km [11]: 3.9 ×10⁶ /M/s
kcat/Km [12]: 1.6 ×10⁶ /M/s
kcat/Km [13]: 1 ×10⁶ /M/s
kcat/Km [14]: 7.9 ×10⁵ /M/s
kcat/Km [15]: 6.6 ×10³ /M/s
kcat/Km [16]: 2.7 ×10⁷ /M/s

B3: Metallo-beta-lactamase IND-2 (Chryseobacterium indologenes), Q9F923 (protein)
chain: MKKSIQLLMMSMFLSPLINAQVKDFVIEPPVKPNLYLYKSFGVFGGKEYSANAVYLTTKKGVVLFDVPWQKEQYQTLMDTIQKRHHLPVIAVFATHSHDDRAGDLSFYNQKGIKTYATAKTNELLKKDGKATSTEIIKTGKPYKIGGEEFMVDFLGEGHTVDNVVVWFPKYKVLDGGCLVKSRTATDLGYTGEANVKQWPETMRKLKTKYAQATLVIPGHDEWKGGGHVQHTLDLLDKN
kcat/Km [17]: 4.5 ×10² /M/s
kcat/Km [18]: 1.8 ×10⁵ /M/s
kcat/Km [19]: 5.9 ×10⁵ /M/s
kcat/Km [20]: 1.2 ×10⁶ /M/s
kcat/Km [21]: 9 ×10⁵ /M/s
kcat/Km [22]: 4.5 ×10³ /M/s
kcat/Km [23]: 4.6 ×10⁶ /M/s

B4: Metallo-beta-lactamase IND-6 (Chryseobacterium indologenes), Q08I33 (protein)
chain: MKRRIQFFMVSMMLTPLFSAQVKDFVIEPPIKKNLYIYKTFGVFGGKEYSANSVYLVTKTGVVLFDVPWEKAQYQSLMDTIKKRHNLPVVAVFATHSHDDRAGDLSFFNNKGIKTYATPKTNQFLKRDGKATSTELIKPGKPYRFGGEEFVVDFLGEGHTADNVVVWFPKYKVLDGGCLVKSNSATDLGYIKEANLEQWPKTMHKLKTKYSEAVLIIPGHDEWKGGGHVEHTLELLDKK
kcat/Km [24]: 4 ×10³ /M/s
kcat/Km [25]: 1.7 ×10⁵ /M/s
kcat/Km [26]: 7 ×10⁶ /M/s
kcat/Km [27]: 3.8 ×10⁶ /M/s
kcat/Km [28]: 5.4 ×10⁶ /M/s
kcat/Km [29]: 2.7 ×10⁶ /M/s
kcat/Km [30]: 6.9 ×10⁶ /M/s
kcat/Km [31]: 3.3 ×10⁶ /M/s
kcat/Km [32]: 2.4 ×10⁵ /M/s
kcat/Km [33]: 6.3 ×10⁶ /M/s
kcat/Km [34]: 5.6 ×10⁶ /M/s
kcat/Km [35]: 2.7 ×10⁵ /M/s
kcat/Km [36]: 1.5 ×10⁷ /M/s
Km [37]: > 300 µM
kcat [37]: > 1.2 s⁻¹
Km [38]: 145 µM
kcat [38]: 25 s⁻¹
Km [39]: 30 µM
kcat [39]: 210 s⁻¹
Km [40]: 13 µM
kcat [40]: 50 s⁻¹
Km [41]: 90 µM
kcat [41]: 490 s⁻¹
Km [42]: 43 µM
kcat [42]: 115 s⁻¹
Km [43]: 60 µM
kcat [43]: 415 s⁻¹
Km [44]: 23 µM
kcat [44]: 75 s⁻¹
Km [45]: 33 µM
kcat [45]: 8 s⁻¹
Km [46]: 3 µM
kcat [46]: 19 s⁻¹
Km [47]: 85 µM
kcat [47]: 480 s⁻¹
Km [48]: 22 µM
kcat [48]: 6 s⁻¹
Km [49]: 20 µM
kcat [49]: 305 s⁻¹
